The record followed here is patent publication US20250262297A1, “ALLERGY ANTIGEN AND EPITOPE THEREOF” (HOYU CO., LTD., priority 2017, published 2025).

For the test, the system named is IgE antibodies from soybean-allergic patients. The test is described as follows: Immunoblotting of two-dimensional electrophoresis pattern of soybean proteins with patient serum. It counts as binding, human. The settings on record: spot in 2D electrophoresis gel of soybean proteins; patient serum compared with healthy subject serum. In outline:
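Soybean proteins were separated by 2-D electrophoresis, transferred to PVDF and blocked in 5% skim milk/PBST. Blots were probed with 3% serum from soybean-allergic patients or healthy subjects for 1 h at room temperature, then anti-human IgE-HRP (1:2500). Chemiluminescent substrate was used, with fluorescent image scanning.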
Background: In western blotting, separated proteins are transferred to a membrane and probed.

B1: chaperonin CPN60-2, mitochondrial (protein)
chain: MYRFATSLASKARIARSSTQQIGSRVTWNRNYAAKDIKFGVEARALMLKGVEELADAVKVTMGPKGRNVVIEQSFGAPKVTKDGVTVAKSIEFKDKVKNIGASLVKQVANATNDVAGDGTTCATILTKAIFTEGCKSVAAGMNAMDLRRGINMAVDAVVTNLKSRARMISTSEEIAQVGTISANGEREIGELIAKAMEKVGKEGVITISDGKTLYNELEVVEGMKLDRGYISPYFITNQKNQKCELEDPLIIIHEKKISSINAIVKVLELALKRQRSLLIVAEDVESDALATLILNKLRAGIKVCAIKAPGFGENRKSGLQDLAVLTGGQLITEELGLNLEKVDLDLFGSCKKITISKDDTVILDGAGDKKAIEERCEQIRSAIENSTSDYDKEKLQERLAKLSGGVAVLKIGGASEAEVGEKKDRVTDALNATKAAVEEGIVPGGGVALLYASSELDKLQTANFDQKIGVQIIQNALKTPVHTIASNAGVEGAVVVGKLLEQNDPDLGYDAAKGEYVDMVKTGIIDPLKVIRTALVDAASVSSLMTTTEAVVSELPKDDKDVPAMGGGMGGMDY
modifications: Glycine max
notes: spot also identified as chaperonin CPN60-2, mitochondrial-like isoform X1
With B1, the “specific binding to IgE antibodies from soybean-allergic patients” value is on record as “specific binding”.
